Assay results: patent US12258584B2, “Methods and systems for converting precursor cells into intestinal tissues through directed differentiation” (Children's Hospital Medical Center, priority 2010, dated 2025)

What was measured:
[1] = system: H9-HES cells differentiated into definitive endoderm; test: Posteriorization of definitive endoderm: foregut (ALB, PDX1) and hindgut (CDX2) marker expression by RT-qPCR and immunofluorescence; type: cell-based, human
Method: Differentiation of DE in Permissive Media (Differentiation Protocol for FIG. 1). After differentiation into definitive endoderm, cells were incubated in DMEM/F12 plus 2% defined fetal bovine serum (dFBS) with either 0, 50, or 500 ng/ml of FGF4 and/or 0, 50, or 500 ng/ml of Wnt3a (R&D Systems) for 6, 48, or 96 hours. Cultures were then grown in permissive media consisting of DMEM plus 10% fetal bovine serum (FBS) for an additional 7 days.
FIGS. 1a through 1d illustrate exemplary embodiments of the present invention. FGF4 and Wnt3a act synergistically in a temporal and dose-dependent manner to specify stable posterior endoderm fate. ActivinA (100 ng/ml) was used to differentiate H9-HES cells into definitive endoderm (DE). DE was treated with the posteriorizing factors FGF4 (50, 500 ng), Wnt3a (50, 500 ng) or both for 6, 48 or 96 hours. Cells were then cultured in a permissive medium without growth factors for an additional seven days and analyzed for expression of foregut markers (ALB, PDX1) and the hindgut marker (CDX2) by RT-qPCR (a) and immunofluorescence (b-d). FGF4/Wnt-mediated changes in marker expression in (a) is relative to 3-day activin treated DE cultures that were grown for identical lengths of time in the absence of FGF4 or Wnt3a (control). […] Error bars denote standard deviation of triplicates. Significance is shown by; * (p<0.05), ^ (p<0.001), # (p<0.0001).
FIGS. 7a and 7b illustrate exemplary embodiments in accordance with the present invention, depicting time and concentration dependent induction of CDX2 by FGF4 and Wnt3a. (a) FGF4 and Wnt3a up-regulate CDX2 in a concentration dependant manner. 3-day ActivinA treated hESCs were treated for 48 hours with Wnt3a at 50 ng/ml or 500 ng/ml or FGF4 at 50 ng/ml or 500 ng/ml, or increasing concentrations of FGF4+Wnt3a. Cells were analyzed after 48 hours of treatment. […] CDX2 expression was normalized to the internal control beta-tubulin, and is shown relative to a 48 hour control cultured in the absence of growth factors. (b) FGF4 and Wnt3a up-regulate CDX2 in a time dependant manner. 48 hours of exposure to FGF4+Wnt3a was required for the most robust induction of CDX2. All time points shown are set relative to a 0 hour no growth factor control. 500 ng/ml of FGF4, Wnt3a or FGF4+Wnt3a was used for all time points. Note that 24 hour and 48 controls, in the absence of growth factors, show a significant and spontaneous up-regulation of CDX2. Error bars denote standard deviation of triplicates. Significance is shown by; * (p<0.05)
RNA was isolated using the Nucleospin II RNA isolation kit (Clonetech). […] Finally, qPCR was carried out using Quantitect SybrGreen MasterMix (Qiagen) on a Chromo4 Real-Time PCR (BioRad). […]

hESCs and iPSCs = test: Definitive endoderm induction, SOX17/FOXA2 immunofluorescence; type: cell-based, human; conditions: ActivinA 100 ng/ml for 3 days
Method: Differentiation of PSCs into Definitive Endoderm (DE). Differentiation into Definitive Endoderm was carried out as previously described. Briefly, a 3 day ActivinA (R&D systems) differentiation protocol was used. Cells were treated with ActivinA (100 ng/ml) for three consecutive days in RPMI 1640 media (Invitrogen) with increasing concentrations of 0%, 0.2%, 2% HyClone defined FBS (dFBS) (Thermo Scientific).
Directing Hindgut Development of PSCs. As a first step to generating intestinal tissue, nodal-related TGFβ molecule activinA was used to promote differentiation of PSCs into DE as previously published. […]
FIGS. 6a and 6b illustrate exemplary embodiments in accordance with the present invention, depicting characterization of DE formation from hESC and iPSC lines by immuno-fluorescence (IF) and Microarray analysis. […] (b) Transcriptional profile of DE induction. hESC-H9 and iPSC lines 3.5, 3.6 and 3.12 were analyzed before and after DE formation (activin differentiation) by Affymetrix DNA microarray analysis.
Tissues were fixed for 1 hour to overnight in 4% paraformaldehyde or 3% glutaraldehyde for transmission electron microscopy (TEM). […] Slides were washed and mounted using Fluormount-G. Confocal images were captured on a Zeiss LSM510 and Z-stacks were analyzed and assembled using AxioVision software. […]

intestinal organoids = test: Intestinal regionalization of hindgut spheroids in 3D matrigel culture with BMP or noggin; type: cell-based, human; conditions: added after the hindgut stage to EGF/Rspondid1 containing media; organoids analyzed after 28 days
Method: For investigating the impact of BMP signaling on intestinal regionalization after hindgut formation, hindgut spheroids were plated in matrigel and BMP or noggin were added to EGF/Rspondid1 containing media. Intestinal organoids were analyzed after 28 days.

[2] = system: definitive endoderm from human embryonic and induced pluripotent stem cells; test: Foregut/hindgut patterning of definitive endoderm by WNT, FGF, BMP and RA signaling (Cdx2, Sox2, HHex, Cerberus expression); type: cell-based
Method: Following definitive endoderm (DE) induction with activin (100 ng/ml) for 3 days, a 2-4 day treatment was performed with the indicated combination of factors: Wnt3a (500 ng/ml) and Fgf4 (500 ng/ml), Retinoic acid (RA) in a range of 0.2-20 μM the BMP antagonist Noggin (50 ng/ml), the WNT antagonist […] (1-500 ng/ml).
In particular, FIGS. 14B and 14D depict the activation of FGF/WNT/BMP signaling promotes posterior/hindgut fate as indicated by expression of Cdx2. […] Activation of FGF/WNT/BMP signaling represses foregut fate as indicated by expression of Sox2 (FIG. 14C).
The effects of Retinoic Acid in promoting hindgut differentiation in a BMP dependent manner (FIGS. 15A-15D). […] Similar comparison was also performed by immunostaining (FIGS. 15C and 15D). Activation of RA signaling promotes posterior/hindgut fate as indicated by expression of Cdx2 and represses foregut fate as indicated by expression of Sox2. Immunostaining in FIG. 15C is quantified in FIG. 15D using an automated cell counting program.

B1: ActivinA: nodal-related TGFβ molecule (R&D systems) used to differentiate PSCs into definitive endoderm (protein, UniProt P08476 311-426, looked up)
Inhibin beta A chain: GLECDGKVNICCKKQFFVSFKDIGWNDWIIAPSGYHANYCEGECPSHIAGTSGSSLSFHSTVINHYRMRGHSPFANLKSCCVPTKLRPMSMLYYDDGQNIIKKDIQNMIVEECGCS
competence of DE cultures to form foregut and hindgut lineages ([1]; activinA for only 3-days, then seven days in permissive conditions): competent to develop into both foregut (Albumin+ and Pdx1+) and hindgut (Cdx2) lineages
competence of DE cultures to form foregut and hindgut lineages ([1]; prolonged activin treatment for 4-5 days): intrinsically anterior in character and not as competent to form posterior lineages
cells co-expressing the DE markers SOX17 and FOXA2 (hESCs and iPSCs): 80-90%
cells co-expressing the DE markers SOX17 and FOXA2 (hESCs and iPSCs; listed as Activin): up to 90%

B2: Noggin: the BMP antagonist Noggin (R&D Systems) (protein, UniProt Q13253 28-232, looked up)
Noggin: QHYLHIRPAPSDNLPLVDLIEHPDPIFDPKEKDLNETLLRSLLGGHYDPGFMATSPPEDRPGGGGGAAGGAEDLAELDQLLRQRPSGAMPSEIKGLEFSEGLAQGKKQRLSKKLRRKLQMWLWSQTFCPVLYAWNDLGSRFWPRYVKVGSCFSKRSCSVPEGMVCKPSKSVHLTVLRWRCQRRGGQRCGWIPIQYPIISECKCSC
regional intestinal fate (intestinal organoids): promotes a proximal intestinal fate (duodenum/jejunum)
Wnt/Fgf-induced Cdx2 expression ([2]; Noggin 50 ng/ml with Wnt3a 500 ng/ml and Fgf4 500 ng/ml, 2-4 day treatment after DE induction): completely abolishes the Wnt/Fgf-induced Cdx2 expression
Retinoic acid (RA)-induced posteriorization, Cdx2 expression ([2]; addition of Noggin to Retinoic acid treatment): potently inhibits Cdx2 expression
hindgut and foregut fate (Cdx2, Sox2 expression) ([2]; repression of BMP signaling with noggin): suppresses hindgut fate and promotes foregut fate
